Experimental data published in EP2168984B1 (Abbott GmbH & Co. KG, dated 2012).

Legend:
Test in all cases: competition ELISA: soluble cytokine against J695 (100 ng/ml) binding to immobilized human IL-12
human IL-1α = target: T1, human IL-1α (human, UniProt P01583 113-271)
T1 sequence (looked up): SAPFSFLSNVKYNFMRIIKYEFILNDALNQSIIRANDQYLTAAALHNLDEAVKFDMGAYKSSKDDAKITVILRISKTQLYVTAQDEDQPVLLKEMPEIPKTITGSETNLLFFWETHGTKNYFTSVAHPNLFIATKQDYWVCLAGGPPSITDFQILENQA

human IL-1β = human IL-1β (human, UniProt P01584 117-269)
human IL-2 = human IL-2 (human, UniProt P60568 21-153)
human IL-4 = target: T2, human IL-4 (human, UniProt P05112 25-153)
T2 sequence (looked up): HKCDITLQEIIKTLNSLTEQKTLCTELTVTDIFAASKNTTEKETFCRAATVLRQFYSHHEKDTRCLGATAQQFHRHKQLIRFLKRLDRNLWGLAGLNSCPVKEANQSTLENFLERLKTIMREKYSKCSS

human IL-10 = human IL-10 (human, UniProt P22301 19-178)
human IL-17 = human IL-17 (human, UniProt Q16552 20-155, limits assumed)
human IFN-gamma = target: T3, human IFN-gamma (human, UniProt P01579 24-166, limits assumed)
T3 sequence (looked up): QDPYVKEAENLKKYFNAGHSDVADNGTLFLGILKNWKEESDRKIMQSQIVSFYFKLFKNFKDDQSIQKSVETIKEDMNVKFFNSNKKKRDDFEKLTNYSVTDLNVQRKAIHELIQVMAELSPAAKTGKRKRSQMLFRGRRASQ

human TGF-β1 = human TGF-β1 (human, UniProt P01137 279-390)
human IL-8 = human IL-8 (human, UniProt P10145 28-99, limits assumed)
human IGF-I = human IGF-I (human, UniProt P05019 49-118)
human IGF-II = human IGF-II (human, UniProt P01344 25-91)
human TNFα = human TNFα (human, UniProt P01375 77-233)
human lymphotoxin = target: T4, human lymphotoxin (human, UniProt P01374 35-205, limits assumed)
T4 sequence (looked up): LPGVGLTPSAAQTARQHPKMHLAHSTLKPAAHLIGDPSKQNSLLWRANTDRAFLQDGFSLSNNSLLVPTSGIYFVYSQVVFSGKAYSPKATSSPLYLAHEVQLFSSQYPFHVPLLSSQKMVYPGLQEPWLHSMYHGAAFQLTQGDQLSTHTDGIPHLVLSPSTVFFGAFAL

human IL-6 = human IL-6 (human, UniProt P05231 30-212)
[1] = target: T5, human soluble IL-6 receptor (human, UniProt P08887 20-358)
T5 construct: Soluble form
T5 sequence (looked up): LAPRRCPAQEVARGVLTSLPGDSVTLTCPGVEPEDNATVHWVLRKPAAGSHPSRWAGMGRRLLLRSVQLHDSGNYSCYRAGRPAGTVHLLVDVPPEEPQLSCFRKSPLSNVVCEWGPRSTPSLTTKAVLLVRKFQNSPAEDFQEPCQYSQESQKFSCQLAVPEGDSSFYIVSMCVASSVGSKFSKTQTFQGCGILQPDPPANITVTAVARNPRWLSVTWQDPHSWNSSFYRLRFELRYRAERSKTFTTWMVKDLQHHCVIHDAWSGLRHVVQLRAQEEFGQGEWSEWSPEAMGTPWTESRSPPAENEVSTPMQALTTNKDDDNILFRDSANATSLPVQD

human IL-11 = target: T6, human IL-11 (human, UniProt P20809 22-199)
T6 sequence (looked up): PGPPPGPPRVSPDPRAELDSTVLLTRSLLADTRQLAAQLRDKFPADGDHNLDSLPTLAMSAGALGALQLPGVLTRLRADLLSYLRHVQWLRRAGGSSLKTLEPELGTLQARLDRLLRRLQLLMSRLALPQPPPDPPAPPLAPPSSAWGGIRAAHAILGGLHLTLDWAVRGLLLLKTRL

human M-CSF = target: T7, human M-CSF (human, UniProt P09603 33-190, limits assumed)
T7 sequence (looked up): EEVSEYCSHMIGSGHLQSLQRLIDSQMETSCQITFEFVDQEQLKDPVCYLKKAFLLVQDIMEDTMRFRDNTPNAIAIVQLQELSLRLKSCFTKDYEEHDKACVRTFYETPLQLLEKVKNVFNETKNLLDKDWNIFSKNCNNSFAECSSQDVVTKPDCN

human LIF = human LIF (human, UniProt P15018 23-202)

Measured: binding result

B1: J695 (human anti-human IL-12 antibody, IgG1) (antibody, V domains shown)
VH: QVQLVESGGGVVQPGRSLRLSCAASGFTFSSYGMHWVRQAPGKGLEWVAFIRYDGSNKYYADSVKGRFTISRDNSKNTLYLQMNSLRAEDTAVYYCKTHGSHDNWGQGTMVTVSS
VL: QSVLTQPPSVSGAPGQRVTISCSGSRSNIGSNTVKWYQQLPGTAPKLLIYYNDQRPSGVPDRFSGSKSGTSASLAITGLQAEDEADYYCQSYDRYTHPALLFGTGTKVTVLG
notes: Tested as whole IgG1 with lambda light chain (detected with anti-human lambda); also called IgG1 J695; Y61-L94Y-L50Y IgG
no binding (tested: 2nM): all assays above
